{
  "source": "the DeepSol protein solubility set",
  "data": [
    {"assay": "soluble on expression in E. coli; label from the status in PepcDB or PDB records", "values": [
      {"sequence": "MVEINLRELKKYANPFFLTIRKDKILVNNKRMARLSRTKMDKIEEEFGIPVIYSKTYEYVSTKVGRFINKHKIIAPRDIVIVGLSGGKDSLLLLHLLEVYRRKYGIKLIAVTVDVNIGGIRPWKEDTEGVKLIKHHCEMLNVPHIILKNDLDVVELSEILTKHSKGMEFSPCFSCSVIKRHLLGKLAKEIAENENIPYEKVKLAYGHNLDDNSDTILANIFKGERLKFMRPLTRFKYNEVDYQSFKIPLEECIIIRPMLPILERDIIKALEECGIEYYKDKDMCPYSRDRGDSVRRRCHEILEKLEEEIPNIREMVVSSALKTVEYYSKNPYGEDNL", "soluble on expression in E. coli": "soluble"},
      {"sequence": "MGSDKIHHHHHHMIPTFVVWSQSMFNDAIVYDRYGPPAAVLTLKRLPLAPLAGGRVRVRMRFAPVNPSDLIPVTGAYRHRTRLPAVAGYEGLGEVVAAPYGSRLAAGQRVLPLRGGGTWQRFIDLDETWLVPVPPAVDDLLAARGYINPLTAMLMLKRWPVAGKHLVLTAASSSCASLLGQWALAMGARSVSGIIRSPQHRARLEQAGIYPILDTDRALMEKVSQHSDLVFDAVGGELANTLLSVLPGSSTLISYGLLSGRPLTQTRGSATVRKFHLREALPTLSVAAWRAAFDEIWQRLPTTSQPPAQRIALNDWRAAIAAAGQPGRGGKILLDFTAG", "soluble on expression in E. coli": "not soluble"},
      {"sequence": "MKVLLINGSPHAKGCTYTALSEVAKALEEENIETEIFQIGTKPVRGCIGCGTCSKTGSGKCVFDDDTLNAGLEKAKTADGFIFGSPVHYAAASGALTSFLDRFFYAGKDFAYKPGAAIVSCRRGGAAAAFDQLNKYFTIANMPIVSSQYWNMVHGNTPEEVKQDLEGMQTMRTLGKNMAWLLKSIQAGKEAGVKLPEKEQTIRTNFIRLEHHHHHH", "soluble on expression in E. coli": "soluble"},
      {"sequence": "MADEERLKEFKEANKIVFDPNTRQVWENQNRDGTKPATTFQSEEDIKRAAPESEKDTSATSGIVPTLQNIVATVTLGCRLDLKTVALHARNAEYNPKRFAAVIMRIREPKTTALIFASGKMVVTGAKSEDDSKLASRKYARIIQKIGFAAKFTDFKIQNIVGSCDVKFPIRLEGLAFSHGTFSSYEPELFPGLIYRMVKPKIVLLIFVSGKIVLTGAKQREEIYQAFEAIYPVLSEFRKM", "soluble on expression in E. coli": "soluble"},
      {"sequence": "MARDVKKRGKPAYTNRRNRQKYLKKKDNKKKLSKSAVPIIKYTWDETKTPRENVRDMGIAFNPNDAVPIAEHRKEIIDAEPIDGVSIVVPKPEKKVTGRKKNEKQAAHIISNLEQQVKEEEEARAGQDRKFRLFHRETELCVYMLARHGEDFQAMTRDPKNLWQYTPKQWAKKIRTHKESEMCKFLETA", "soluble on expression in E. coli": "not soluble"},
      {"sequence": "RAKLMEERETSLKDSVEVAFDAVRLIANNPNLSEAEAKQQVKAVLTNIRYGSDGYFFAYDAQGTNLVHPIQPELVGQNLWQLQDERGDFLIQ", "soluble on expression in E. coli": "not soluble"},
      {"sequence": "GPGSMSRTQTSSKSVPKNIAVYCRVRPPVPNEKGHTFQNISYDDSDSRAIAVARKSGTKALEKTYLFNRVFRPTATQKDVYETFAKGAVDAAFDGQHGVLFVYGQTGSGKTFTISNDEPNNEGVLQRSMRDIWNRIASDTANDYSCSVSYVQLYNEILTDLLDDAKGKVRIQMGSEGRGDVVMVSDSTGMAIEREVKDYKSTMACFQVGLARKEMASTSMNSTSSRSHTIFTLNIVKAKKVVAVTVGTEAEGPTIALEGRLVLCDLAGSERVSKTHAEGKTLDEATHINRSLLTLGKVVTALTDNAQHAPFRESKLTRILQYSLMGNGNTSIIVNISPSDDNTEESLSAILFGQRASQIKQDAKRHEVLDYKALYMQLMAELDNKNDKTLEEALEEERGVYEERISALDEEMKLLSDENAMLRNENKQLRQYVPADRLKLIDETPSSGVSGANGEVVSGGWAKVNQDLRKLVQQRDERLKVISDERVRLALVVAEEKRKCFQLAQKMRSFAMRYKMEREQSTQRQEELCTELATLKGTDYLSAVGSFDATASPGSPNYPRENEEFNDAESAQAQIRALRAERMELMVYQAKAANAIRKLVKERDAAQRKVA", "soluble on expression in E. coli": "soluble"},
      {"sequence": "SKQESAAPNTPPTSQSPTPSAQFPRNDGDPQALWIFGYGSLVWRPDFAYSDSRVGFVRGYSRRFWQGDTFHRGSDKMPGRVVTLLEDHEGCTWGVAYQVQGEQVSKALKYLNVREAVLGGYDTKEVTFYPQDAPDQPLKALAYVATPQNPGYLGPAPEEAIATQILACRGFSGHNLEYLLRLADFMQLCGPQAQDEHLAAIVDAVGTMLPCFCPTEQALALV", "soluble on expression in E. coli": "soluble"},
      {"sequence": "QKVPAPVDGERIIMELSEADVECTIKIEAEDGYANDIWADLNGNGKYDSGERLDSGEFRDVEFRQTKAIVYGKMAKFLFRGSSAGD", "soluble on expression in E. coli": "not soluble"},
      {"sequence": "MSLQDIKDITLRQFGTGVSNLNEVAQKVKEDLGFTLTMTALDSDAVTQRAATQPDSFDIADIEYWICKKVWPTGNLQAMDTSKIKNYDKIVGIFRSGKLTPESTIAQGTAPHTVGFTSGPGGTDFVQEESGWMTLIPTIYNADTLGIRPDLIGRPIESWTELLNPEFKGKASILDISSIGIMDAAMVCEAMGEITYGDKGNMTREEIDRTMAIFTEAKKAGQFRAFWKTFDESVNLMASGEVVIQSMWSPAITAVKSRGIPCVYQPLREGYRSWGGGIGLSARLDGLALEAAYEYINWYLSGWVGGFLMRQGYYSAVPETSKEFMSENEWGYWFEGKPATDTITNPQGQAMAQAGEVRDGGSFEERMGRVACWNSVMDENQYMVRKWNEFIAAEGHHHHHH", "soluble on expression in E. coli": "not soluble"},
      {"sequence": "MVKDKQKAIFSENLNSYIAKSEKTQLEIAKSIGVSPQTFNTWCKGIAIPRMGKVQALADYFNINKSDLIEDKKLNIDTVPIESGYTIPVLGRVAAGYGKEAVEEVIGQIEISPSMAAKGDYFGLLIKGDSMIPTLYDGDTVIVERTDDAESGDLVIALVNGSDATCKRLQKYAEGIALIPQNPVYEPMRFTESEIDTTPVKILGKVVEMRRKFLEHHHHHH", "soluble on expression in E. coli": "soluble"},
      {"sequence": "MSLNFDWIKTRSDFDDDKPAVIDHAKQTSWTYQQLNARADNMAHYLTSQGVKKGDVIGIFAPNDIAILDLLFACFKTGAVFLPLNWRLNPKEIAAIVEDAQLKLLFYAEKHLSSLTDIDQNLLHMDIDVAQYDEIVNPDYHQPFQATPVEPQDLAALIYTSGTTGSPKGVMFSYESFVHNGANLELTYKFNSNYITIVSTPMFHVLGFNDTVLPVLMSGGTLILQRYFNGEELNDMIAQYHPTFIIMIPTMYYSTLRASNFNPENFRAMDYIIQGGSQPLPSIQAAFKQYGINIINGYGLTEAPLVLVNTPENSKRKPMSIGKAVMFVDARILDDNGEEVPTGEIGELAIKAKNVTPGYWNKPAETAKAFHGRYLLTGDLAKMDDDGDIFIIDRKKELIITGGENVLPSEVENALAEHPLVDRCVVVGYDHPKYGESIAAAIILREDEPHYAEILDQHMRSRLAGYKVPRMYVPVTHMPLNSTQKPDKLAIRQMMNDKVSQTLEGHHHHHH", "soluble on expression in E. coli": "soluble"},
      {"sequence": "DFDFEGNLALFDKAAVFEEIDTYERRSGTRSRGIPNERPTRYRHDENILESEPIVYRRIIVPHNVSKEFCTDSGLVVPSISYELHKKLLSVAEKHGLTLERRLEMTGVCASQMALTLLGGPNRLNPKNVHQRPTVALLCGPHVKGAQGISCGRHLANHDVQVILFLPNFVKMLESITNELSLFSKTQGQQVSSLKDLPTSPVDLVINCLDCPENVFLRDQPWYKAAVAWANQNRAPVLSIDPPVHEVEQGIDAKWSLALGLPLPLGEHAGRIYLCDIGIPQQVFQEVGINYHSPFGCKFVIPLHSA", "soluble on expression in E. coli": "soluble"},
      {"sequence": "MNPPDISVLIVSFNTRDLLRRCLASLRDQAGGTGIETIVVDNASRDGSADMVEAEFPDVRLIRSPVNLGFGNANNLAFTQSRGRYLVLLNSDACLAPGLLDAASKRMDACPDVGMAGGRLVGPEGGWQPSARMFPSLLNEFLVLSGLAHRYPKSRLFGRFDRTWADPSEEAGVDWVPGAFAILRRDLIDRIGFFDPRFFLYYEEVDLCRRIRAAGCKIMYWPELVITHLGGESAKTLSDMEFSSHASQLTLWRMRSQALYYRKWHGLALAWSAKTLEQLWHWLRALRHRRSAPAKAHDSEALIRLWNRAWKETEGGRVSPPQPWLEHHHHHH", "soluble on expression in E. coli": "not soluble"},
      {"sequence": "MSLPAKRKLTMRHIRQMLRLAGSGTSSREIAVMLGIARSTVQDNLKRAAMAGLSWALASGLTDDVLEAKLFVHPGVKRGQRLRQEPDWGPLSIELKKPGVTLLILWEEYRSAHPDGYGYSRFCELFRGFEKRLSPTMRQEHIAGDKVFVDYSGKKVPIVDRKTGEIREAELFLGVLGASSYCTRGRSVHLGELLRRAWIFQHLGNREGHHHHHH", "soluble on expression in E. coli": "not soluble"},
      {"sequence": "AKFSAIITDKVGLHARPASVLAKEASKFSSNITIIANEKQGNLKSIMNVMAMAIKTGTEITIQADGNDADQAIQAIKQTMIDTALIQG", "soluble on expression in E. coli": "soluble"},
      {"sequence": "MVAIIDASITRFGKRKESLLELAGEVALPLIGKYEIDFVVVSNSYSGEFNSLSGINNLITTYLSVDKVPSIRVDNTSGSGGSAILVAKSLLDSKITKTVLVLGVEKMSEKNTKQVTSVIASLLSPEEKIVGLTLPSLAGLMTKEYMRRYNASREAFALVAVKNHYNGSLNPFAHIQKVVSLEEVLNSPIIADPLTLYEFTPISDGASAIVMVRDEDAYSFTKKPVFI", "soluble on expression in E. coli": "not soluble"},
      {"sequence": "SMRYTVSNLSMQTHAARFKTFFNWPSSVLVNPEQLASAGFYYVGNSDDVKCFCCDGGLRCWESGDDPWVQHAKWFPRCEYLIRIKGQEFIRQVQAS", "soluble on expression in E. coli": "soluble"},
      {"sequence": "MAHHHHHHMVNLRLQVAVVGAPTVGKTAFVQMLHSNGTTFPKNYLMTLGCDFIVKEVPVDDDNTVEMIIFDVSGQREYEPMVSSYLQNTAVFIVMYDVSNKVTFEACARWVNQVRTNSKESVGILIANKSDLSDKAEVTDRQGKDLANANKMKFYKISTLRGVGITEPIDEIARHYVDAYQKRIEQLTQMR", "soluble on expression in E. coli": "not soluble"},
      {"sequence": "GSMAPLGGAPRLVLLFSGKRKSGKDFVTEALQSRLGADVCAVLRLSGPLKEQYAQEHGLNFQRLLDTSTYKEAFRKDMIRWGEEKRQADPGFFCRKIVEGISQPIWLVSDTRRVSDIQWFREAYGAVTQTVRVVALEQSRQQRGWVFTPGVDDAESECGLDNFGDFDWVIENHGVEQRLEEQLENLIEFIRSRLKLHHHHHH", "soluble on expression in E. coli": "soluble"},
      {"sequence": "MGSDKIHHHHHHMNICDLAPAYIRAISPYQPGKPISELAREMGMDEQSIIKLASNENPLGTSPMALNAMSKALDEVSLYPDGSGFELKAALSERYGVTSDQIVLGNGSNDVLELAARVFLKPGASTVYSQHAFAVYPLVTKAVGGIGISVPARNYGHDLDAMLDAVAPETRVVFIANPNNPTGTLLPADDVLRFLERVSPDVLVVLDEAYNEYLPPALKGDSIAWLKQFPNLLITRTFSKAYGMAGVRVGFGLGHPDVAGLMNRVRQPFNVNNIGLAGAVAALQDEEFVKRSYALNQAGMLQIVTGLRQMGIEYIPSYGNFLSFRVPGNVKAINESLLKQGVIVRPISIYEMPEHLRVTVGLESENEKFLKSLAIALETTEGAAADTIPEMAVSFPKVASGGTA", "soluble on expression in E. coli": "not soluble"},
      {"sequence": "MSDMYDKINELYDRRREIELGGGDEKIEQQHAKGKLTARERIDLLLDEGTFVELNPFIEHRCTDFGLGEKKGPGDGVVTGYGKINGRTVFVFSQDFTVFGGALGEMHAKKITNIMDLAAKTGAPVIGLNDSGGARIQEGVLSLDGYGHIFYRNAIYSGVIPQISVIMGPCAGGAVYSPAITDFVFMVEKTSQMFITGPKVIEAVTGEKISAEDLGGARVHNTISGNAHFAAANEEEALAEVRRLLGYLPSNNNEKPPFGPIPDGDDYRPDLADVVPIDAVRPYDVRHVIAQVVDDGSFMEVQKDFAKNIVIGFARIKGEVVGLVCNQPKFMAGGLDIDSSDKAARFIRFCDSFNIPIITFEDVTGFFPGVKQEHGGIIRHGAKILYAYSEATVPKITVILRKAYGGAYVALNSKSIGADVVYAWPNAEVAVMGPQGAANIIFAGEIEKSPNPEETRAQKIAEYREKFANPYVAAKYGMIDDVIDPRDTRIKLIQALEMLRNKHEERPKKKHGNIPL", "soluble on expression in E. coli": "not soluble"}
    ]}
  ]
}
